Reference: patent US20100310561A1 (Boehringer Ingelheim, published 2010)
Each block holds one binder with its values, some of them ahead of it. Where no end group is shown, it is not given here.

What was measured:
[1] = biological target: T1, human natriuretic peptide receptor A (NPRA) (human, UniProt P16066 33-1061); experiment: competition with 125I-labeled ANP on human NPRA transfected HEK293 cells; Ki=IC50/[1+([L]/Kd)]
T1 construct: whole, on cells; also called hNPRA; Human NPRA
T1 sequence (looked up): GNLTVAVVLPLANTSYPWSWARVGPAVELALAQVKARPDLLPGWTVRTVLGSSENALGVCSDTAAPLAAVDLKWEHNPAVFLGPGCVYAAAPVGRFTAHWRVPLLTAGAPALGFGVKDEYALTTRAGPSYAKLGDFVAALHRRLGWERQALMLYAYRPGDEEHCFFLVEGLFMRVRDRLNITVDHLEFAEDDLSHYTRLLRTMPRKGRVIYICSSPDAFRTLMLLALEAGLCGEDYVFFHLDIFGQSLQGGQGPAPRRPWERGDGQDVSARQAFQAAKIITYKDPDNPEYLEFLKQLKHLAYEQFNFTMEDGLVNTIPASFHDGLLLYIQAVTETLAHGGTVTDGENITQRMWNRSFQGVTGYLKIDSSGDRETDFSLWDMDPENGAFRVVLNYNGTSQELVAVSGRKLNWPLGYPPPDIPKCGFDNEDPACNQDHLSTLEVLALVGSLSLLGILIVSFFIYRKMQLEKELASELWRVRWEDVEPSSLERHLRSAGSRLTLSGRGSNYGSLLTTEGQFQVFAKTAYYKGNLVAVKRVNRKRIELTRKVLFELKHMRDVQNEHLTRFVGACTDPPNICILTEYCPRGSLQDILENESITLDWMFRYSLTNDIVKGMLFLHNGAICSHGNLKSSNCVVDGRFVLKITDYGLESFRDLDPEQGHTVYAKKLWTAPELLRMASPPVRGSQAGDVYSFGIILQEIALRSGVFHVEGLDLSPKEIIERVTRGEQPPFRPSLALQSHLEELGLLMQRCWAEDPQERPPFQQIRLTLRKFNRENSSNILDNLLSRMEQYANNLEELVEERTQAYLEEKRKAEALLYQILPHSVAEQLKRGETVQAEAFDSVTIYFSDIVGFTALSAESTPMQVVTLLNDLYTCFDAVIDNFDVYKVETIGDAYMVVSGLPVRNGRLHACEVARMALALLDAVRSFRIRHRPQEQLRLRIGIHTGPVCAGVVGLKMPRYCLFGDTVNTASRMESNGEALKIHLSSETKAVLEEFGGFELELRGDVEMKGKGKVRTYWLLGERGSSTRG
Procedure: Plates were washed with ice cold buffer by vacuum filtration and allowed to dry. Scintillant was added and the plates were counted on a TopCount Scintillation counter.
(§1) Plates were washed using vacuum filtration and allowed to dry. Scintillant was added and the plates were counted on a TopCount Scintillation counter. Curves were fit using XLfit4.2 and IC₅₀ values (Table 8) were determined using the Dose Response One Site Model 205, [4 parameter fit: y=A+((B-A)/(1+((C/x)̂D)))].

[2] = biological target: T1, human natriuretic peptide receptor A …; experiment: competition with 125I-labeled ANP on human NPRA transfected HEK293 cells; relative to Construct 1
Procedure: as §1

[3] = biological target: T1, human natriuretic peptide receptor A …; experiment: competition with 125I-labeled ANP on human NPRA transfected HEK293 cells
Procedure: as §1

rat NPRA = biological target: T2, rat NPRA (rat, UniProt P18910 29-1057); experiment: cell-based or functional assay
T2 sequence (looked up): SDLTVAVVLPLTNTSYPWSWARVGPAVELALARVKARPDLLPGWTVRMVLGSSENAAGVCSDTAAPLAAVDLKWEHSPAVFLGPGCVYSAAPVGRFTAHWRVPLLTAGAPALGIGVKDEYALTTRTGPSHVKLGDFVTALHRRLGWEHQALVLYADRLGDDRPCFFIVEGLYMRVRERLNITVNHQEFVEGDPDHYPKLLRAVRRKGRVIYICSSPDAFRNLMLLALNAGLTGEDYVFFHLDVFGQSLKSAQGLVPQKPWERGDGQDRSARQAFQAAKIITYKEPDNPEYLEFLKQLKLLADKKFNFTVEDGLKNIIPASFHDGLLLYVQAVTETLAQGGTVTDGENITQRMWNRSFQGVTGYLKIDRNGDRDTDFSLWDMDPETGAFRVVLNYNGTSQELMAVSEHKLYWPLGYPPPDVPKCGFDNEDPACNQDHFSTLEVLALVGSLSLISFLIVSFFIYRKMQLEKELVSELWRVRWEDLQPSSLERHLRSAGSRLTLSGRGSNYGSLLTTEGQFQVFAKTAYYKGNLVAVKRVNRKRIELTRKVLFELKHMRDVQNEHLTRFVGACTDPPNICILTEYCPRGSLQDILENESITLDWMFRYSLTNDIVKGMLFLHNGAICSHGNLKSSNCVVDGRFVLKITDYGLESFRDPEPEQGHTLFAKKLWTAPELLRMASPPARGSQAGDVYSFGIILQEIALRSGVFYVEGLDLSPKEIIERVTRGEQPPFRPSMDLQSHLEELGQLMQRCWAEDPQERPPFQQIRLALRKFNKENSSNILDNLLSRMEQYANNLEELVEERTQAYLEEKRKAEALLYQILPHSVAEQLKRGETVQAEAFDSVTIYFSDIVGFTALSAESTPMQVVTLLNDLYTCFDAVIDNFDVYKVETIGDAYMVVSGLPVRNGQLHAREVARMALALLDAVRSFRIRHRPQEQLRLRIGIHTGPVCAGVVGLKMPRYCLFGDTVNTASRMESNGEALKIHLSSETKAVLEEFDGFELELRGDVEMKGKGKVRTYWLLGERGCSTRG

canine NPRA [4] = biological target: T3, canine NPRA (canine, UniProt A0A8I3MHU3 32-1060); experiment: cell-based or functional assay
T3 sequence: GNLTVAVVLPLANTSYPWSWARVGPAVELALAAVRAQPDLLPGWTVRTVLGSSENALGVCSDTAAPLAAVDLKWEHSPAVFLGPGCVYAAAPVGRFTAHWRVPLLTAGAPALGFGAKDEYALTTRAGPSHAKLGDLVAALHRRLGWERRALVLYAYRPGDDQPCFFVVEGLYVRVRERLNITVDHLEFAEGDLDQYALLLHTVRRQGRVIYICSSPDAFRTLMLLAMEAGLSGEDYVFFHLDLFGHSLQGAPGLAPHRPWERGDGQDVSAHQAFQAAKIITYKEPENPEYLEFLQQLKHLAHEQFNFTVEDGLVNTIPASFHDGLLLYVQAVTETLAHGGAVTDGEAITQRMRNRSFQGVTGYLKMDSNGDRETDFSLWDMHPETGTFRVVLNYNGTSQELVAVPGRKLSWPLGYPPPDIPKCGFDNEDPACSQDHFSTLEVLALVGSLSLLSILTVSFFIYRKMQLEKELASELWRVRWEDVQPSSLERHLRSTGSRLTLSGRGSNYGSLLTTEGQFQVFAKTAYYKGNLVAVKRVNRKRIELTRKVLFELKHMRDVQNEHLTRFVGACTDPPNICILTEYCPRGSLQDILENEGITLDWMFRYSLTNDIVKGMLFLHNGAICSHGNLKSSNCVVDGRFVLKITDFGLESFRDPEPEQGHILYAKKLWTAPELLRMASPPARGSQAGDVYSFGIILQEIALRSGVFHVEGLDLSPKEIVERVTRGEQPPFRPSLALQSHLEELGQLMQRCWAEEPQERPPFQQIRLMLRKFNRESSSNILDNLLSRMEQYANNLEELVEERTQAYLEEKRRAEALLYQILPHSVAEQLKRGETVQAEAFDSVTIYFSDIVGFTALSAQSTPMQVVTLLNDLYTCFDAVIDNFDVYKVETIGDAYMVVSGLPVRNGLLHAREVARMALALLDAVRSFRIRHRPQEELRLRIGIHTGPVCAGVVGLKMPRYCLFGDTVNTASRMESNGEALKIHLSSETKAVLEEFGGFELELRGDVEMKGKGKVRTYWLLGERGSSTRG

monkey NPRA = monkey NPRA (monkey); experiment: cell-based or functional assay
[5] = biological target: T1, human natriuretic peptide receptor A …; experiment: cell-based or functional assay
canine NPRA [6] = biological target: T3, canine NPRA; experiment: cell-based or functional assay; remark: listed apart in the source

- Ki [1]: 12.3 nM
- Relative Affinity [2]: 4
- IC50 [3]: 29.3 nM
- cGMP EC50 (nM) Rat NPRA (rat NPRA): 57 nM
- cGMP EC50 (nM) Dog NPRA (canine NPRA [4]): 46 nM
- cGMP EC50 (nM) Monkey NPRA (monkey NPRA): 18 nM
- cGMP EC50 (nM) Human NPRA [5]: 27 nM
B1: Construct 4, ANPXY-L4-Fc2AB (recombinant) (Fc fusion)
chain: SLRRSSCFGGRMDRIGAQSGLGCNSFRYGGSGGSGGSGGCPPCPAPPVAGPSVFLFPPKPKDTLMISRTPEVTCVVVDVSHEDPEVQFNWYVDGVEVHNAKTKPREEQFNSTFRVVSVLTVVHQDWLNGKEYKCKVSNKGLPAPIEKTISKTKGQPREPQVYTLPPSREEMTKNQVSLTCLVKGFYPSDIAVEWESNGQPENNYKTTPPMLDSDGSFFLYSKLTVDKSRWQQGNVFSCSVMHEALHNHYTQKSLSLSPGK
notes: also called ANP28-11aa-hFc2

- Ki [1]: 2 nM
- Relative Affinity [2]: 1
- IC50 [3]: 4.3 nM
- cGMP EC50 (nM) Rat NPRA (rat NPRA): 12 nM
- cGMP EC50 (nM) Dog NPRA (canine NPRA [4]): 6 nM
- cGMP EC50 (nM) Monkey NPRA (monkey NPRA): 5 nM
- cGMP EC50 (nM) Human NPRA [5]: 6 nM
B2: Construct 5, ANPXY-L6-Fc2AB (recombinant) (Fc fusion)
chain: SLRRSSCFGGRMDRIGAQSGLGCNSFRYGGSGGSGGSGGSGGSGGSGGCPPCPAPPVAGPSVFLFPPKPKDTLMISRTPEVTCVVVDVSHEDPEVQFNWYVDGVEVHNAKTKPREEQFNSTFRVVSVLTVVHQDWLNGKEYKCKVSNKGLPAPIEKTISKTKGQPREPQVYTLPPSREEMTKNQVSLTCLVKGFYPSDIAVEWESNGQPENNYKTTPPMLDSDGSFFLYSKLTVDKSRWQQGNVFSCSVMHEALHNHYTQKSLSLSPGK
notes: also called ANP28-20aa-hFc2

- Mean EC50 nM, cGMP-caNPRA 293 (canine NPRA [6]): 1.34 nM
- cGMP EC50 (nM) Dog NPRA (canine NPRA [4]): 1.3 nM
- cGMP EC50 (nM) Monkey NPRA (monkey NPRA): 0.5 nM
Binder: SLRRSSCFGGRMDRIGAQSGLGCNSFRY (ends and bridges not checked; also: also used 125I-labelled as radioligand) [human ANP28 peptide (hANP28)]
